For assay [1], the target named is T1, recombinant human Ang2-FLD (human, UniProt O15123 275-496, limits assumed).
T1 construct: domain: FLD; not used
T1 sequence (looked up): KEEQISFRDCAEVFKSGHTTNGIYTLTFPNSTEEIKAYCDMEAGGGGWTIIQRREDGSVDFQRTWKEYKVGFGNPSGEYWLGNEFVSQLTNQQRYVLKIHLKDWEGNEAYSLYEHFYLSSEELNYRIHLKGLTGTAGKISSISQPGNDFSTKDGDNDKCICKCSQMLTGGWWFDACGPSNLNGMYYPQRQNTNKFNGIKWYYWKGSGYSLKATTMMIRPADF
As to the kind of experiment: SPR (Biacore T100), binder on CM5 chip, Ang2-FLD as analyte. Here is the method: (§1) In brief, VHH and benchmark compounds are immobilized on a CM5 chip via amine coupling. […] Ang2-FLD species are allowed to associate for 2 min and to dissociate for 20 min at a flow rate of 45 μL/min. In between injections, the surfaces are regenerated with a 10 sec pulse of 25 mM NaOH and 60 sec stabilization period. Association/dissociation data are evaluated by fitting a 1:1 interaction model (Langmuir binding). The affinity constant KD is calculated from resulting association and dissociation rate constants kₐ and kd and are depicted in Table 8.

In assay [2] the target is T2, recombinant mouse Ang2-FLD (mouse, UniProt O35608 275-496, limits assumed).
T2 construct: domain: FLD
T2 sequence (looked up): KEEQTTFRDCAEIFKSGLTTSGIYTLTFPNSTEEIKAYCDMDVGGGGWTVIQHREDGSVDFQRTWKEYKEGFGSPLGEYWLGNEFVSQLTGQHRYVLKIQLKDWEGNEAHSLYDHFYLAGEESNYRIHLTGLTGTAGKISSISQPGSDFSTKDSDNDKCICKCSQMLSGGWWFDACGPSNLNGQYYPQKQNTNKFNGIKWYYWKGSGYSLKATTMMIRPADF
Described as above. Here is the method: as §1

The target in assay [3] is T3, recombinant cynomolgus Ang2-FLD (cynomolgus).
T3 construct: domain: FLD; also called cyno Ang2-FLD
The assay is described as above. Here is the method:
as §1

For assay [4], the target named is T4, N-terminally FLAG-tagged cynomolgus Ang2 (HEK293T conditioned medium) (cynomolgus, UniProt O15123 19-496 (human entry), limits assumed).
T4 construct: may be a nucleotide entry; also called cAng2; FLAG-cAng2
T4 chain: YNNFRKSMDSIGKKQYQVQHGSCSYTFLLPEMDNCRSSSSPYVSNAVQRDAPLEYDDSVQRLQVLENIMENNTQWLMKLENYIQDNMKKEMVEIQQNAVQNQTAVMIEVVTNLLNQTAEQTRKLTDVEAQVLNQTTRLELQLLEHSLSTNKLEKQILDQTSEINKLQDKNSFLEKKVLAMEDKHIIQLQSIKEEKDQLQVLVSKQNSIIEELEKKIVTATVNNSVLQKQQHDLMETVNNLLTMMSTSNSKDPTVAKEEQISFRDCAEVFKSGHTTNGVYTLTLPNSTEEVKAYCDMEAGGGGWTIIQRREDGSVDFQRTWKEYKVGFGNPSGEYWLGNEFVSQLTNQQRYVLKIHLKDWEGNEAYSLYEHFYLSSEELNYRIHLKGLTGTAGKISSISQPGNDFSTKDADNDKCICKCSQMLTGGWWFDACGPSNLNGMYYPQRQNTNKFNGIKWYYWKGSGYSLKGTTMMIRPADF
As to the kind of experiment: competition ELISA, FLAG-cAng2 on coated cTie2-Fc. On the procedure:
(§2) In brief, 2 μg/mL of recombinant mouse Tie2-Fc or cyno Tie2-Fc is coated overnight at 4° C. in a 96-well MaxiSorp plate (Nunc, Wiesbaden, Germany). Coated wells are blocked with a 1% casein solution.
A general note: An ELISA detects its analyte on a solid surface through an enzyme-linked reagent.

Assay [5] deals with T5, N-terminally FLAG-tagged mouse Ang2 (HEK293T conditioned medium) (mouse, UniProt O35608 19-496).
T5 construct: may be a nucleotide entry; also called mAng2; FLAG-mAng2
T5 sequence: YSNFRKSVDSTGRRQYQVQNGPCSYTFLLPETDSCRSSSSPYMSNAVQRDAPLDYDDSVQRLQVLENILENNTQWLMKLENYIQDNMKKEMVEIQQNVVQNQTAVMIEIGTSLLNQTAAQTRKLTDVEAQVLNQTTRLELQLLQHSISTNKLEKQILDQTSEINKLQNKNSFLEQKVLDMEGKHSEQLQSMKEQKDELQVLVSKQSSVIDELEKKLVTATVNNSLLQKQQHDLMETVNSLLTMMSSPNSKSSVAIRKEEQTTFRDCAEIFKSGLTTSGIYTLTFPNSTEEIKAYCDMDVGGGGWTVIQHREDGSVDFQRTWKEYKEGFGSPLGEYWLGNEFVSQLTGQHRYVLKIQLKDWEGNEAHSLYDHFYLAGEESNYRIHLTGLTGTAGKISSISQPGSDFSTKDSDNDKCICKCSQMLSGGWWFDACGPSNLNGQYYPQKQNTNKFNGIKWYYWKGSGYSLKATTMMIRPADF
As to the kind of experiment: competition ELISA, periplasmic extract, FLAG-mAng2 on mTie2/Fc. Here is the method:
In brief, human Tie2/Fc chimera (R&D Systems, Minneapolis, Minn., USA) is biotinylated using N-hydroxysulfosuccinimide ester of biotin (Thermo Fisher Scientific, Rockford, Ill., USA). […] To this mixture, the Acceptor beads and 0.3 nM biotinylated human Tie2/Fc chimeras are added and further incubated for 2 hours at room temperature. Finally, streptavidin conjugated Donor beads (Perkin Elmer, Waltham, Mass., US) are added and the mixture is incubated for an additional 2 hours at room temperature. Assay buffer is PBS+0.03% Tween-20+0.1% BSA. Fluorescence is measured using the Envision Multilabel Plate reader (Perkin Elmer, Waltham, Mass., USA) using an excitation wavelength of 680 nm and an emission wavelength of 520 nm. […] In brief, human or mouse Tie2/Fc chimera (R&D Systems, Minneapolis, Minn., USA) are immobilized at 2 μg/mL overnight at 4° C. in a 96-well MaxiSorp plate (Nunc, Wiesbaden, Germany). Wells are blocked with a 1% casein solution. […] This mixture is added to the Tie2/Fc coated well and incubated for 2 hours at room temperature. Residual binding of Ang is detected using HRP-conjugated anti-FLAG M2 antibody (Sigma, St Louis, Mo., USA).

The target in assay [6] is T5, N-terminally FLAG-tagged mouse Ang2 …. As to the kind of experiment: competition ELISA, FLAG-mAng2 on coated mTie2-Fc. On the procedure:
as §2

The target is the same in assay [7]. Briefly: competition ELISA, FLAG-mAng2 on coated mTie2-Fc. Here is the method:
as §2
The source holds these as a separate data set.

In assay [8] the target is T6, FLAG-tagged mouse Ang2 (mouse, UniProt O35608 19-496).
T6 construct: N-terminally FLAG-tagged, conditioned medium of HEK293T cells; also called mAng2; FLAG-mAng2
T6 sequence: T5 sequence
Briefly: competition ELISA: FLAG-mAng2 binding to coated mTie2-Fc. On the procedure:
as §2

For assay [9], the target named is T7, FLAG-tagged cynomolgus Ang2 (cynomolgus, UniProt O15123 19-496 (human entry), limits assumed).
T7 construct: N-terminally FLAG-tagged, conditioned medium of HEK293T cells; also called cAng2; FLAG-cAng2
T7 chain: T4 chain
As to the kind of experiment: competition ELISA: FLAG-cAng2 binding to coated cTie2-Fc. On the procedure:
as §2

Assay [10] concerns the target T6, FLAG-tagged mouse Ang2. Briefly: competition ELISA: FLAG-mAng2 binding to coated mTie2-Fc. On the procedure: as §2
The source holds these as a separate data set.

For assay [11], the target named is T7, FLAG-tagged cynomolgus Ang2. As to the kind of experiment: competition ELISA: FLAG-cAng2 binding to coated cTie2-Fc. On the procedure:
as §2

The target is the same in assay [12]. The assay is described as above. Here is the method: as §2
For assay [13], the target named is T6, FLAG-tagged mouse Ang2. Briefly: competition ELISA: FLAG-mAng2 binding to coated mTie2-Fc. Here is the method:
as §2
The source holds these as a separate data set.

Residue numbers refer to the chain shown, from its start. Read-outs that look alike come from different tables or passages of the source.

B1: VHH 13A02 (VHH)
VHH: EVQLVESGGGLVQAGGSLRLSCAASGGTFSSYSMGWFRQAPGKEREFIAAINWNGDSTYYEDSVKGRFTVSRDNAKNTVYLQMNSLKPEDTAVYYCAATGWGRAYEQAYEYDVWGQGTQVTVSS
notes: also called 013A02; not shown: C-terminal c-myc tag and His6 tag
As for B1, the Kd in [1] came out at 9.9 nM; in [2], 18 nM; in [3], 8.7 nM. In addition, the koff in assay [1] is 0.091 s⁻¹; in assay [2], 0.034 s⁻¹; in assay [3] it was 0.094 s⁻¹. The kon in [1] was 9.2e+06 M⁻¹ s⁻¹; in assay [2], 1.9e+06 M⁻¹ s⁻¹; in [3] it was 1.1e+07 M⁻¹ s⁻¹. Moreover, the IC50 in [4] was determined as 33.1 nM; in assay [6], 6.1 nM; in [7] it was 26.6 nM. Further, the “% inh” value in [5] stood at 97%.

B2: VHH 00932 (VHH, not shown: small tags and cut ends)
VHH: EVQLVESGGGLVQPGGSLRLSCAVSGITLDDYAIGWFRQAPGKEREGVSSIRDNGGSTYYADSVKGRFTISSDNSKNTVYLQMNSLRPEDTAVYYCAAVPAGRLRYGEQWYPIYEYDAWGQGTLVTVSS
notes: Cycle 3 variant of 28D10 on the 00908 backbone
As to B2, the IC50 in the assay with FLAG-tagged mouse Ang2 [8] was 0.038 nM; in assay [9], 0.054 nM.

B3: VHH 00935 (VHH, not shown: small tags and cut ends)
VHH: B2 VHH with V24A, S50A, D53S, N54S
notes: as for B2
For B3, the IC50 with FLAG-tagged mouse Ang2 [8] came to 0.078 nM; in assay [9], 0.069 nM.

B4: VHH 00933 (VHH, not shown: small tags and cut ends)
VHH: B2 VHH with V24A, S50A
notes: as for B2
On to B4, for which the IC50 stood at 0.062 nM with FLAG-tagged mouse Ang2 [8] and 0.071 nM in [9].

B5: VHH 37F02 (VHH, not shown: small tags and cut ends)
VHH: EVQLVESGGGLVQPGGSLRLSCAASGFALDYYAIGWFRQAPGKEREGVSCISSSDGITYYVDSVKGRFTISRDNAKNTVYLQMNSLKPEDTAVYYCATDSGGYIDYDCMGLGYDYWGQGTQVTVSS
notes: Parental llama VHH; also called 037F02
Take B5: the IC50 with FLAG-tagged mouse Ang2 [10] turned out to be 0.11 nM; in assay [11], 0.15 nM; in assay [12], 0.15 nM; with FLAG-tagged mouse Ang2 [13] it was 0.11 nM.

B6: VHH 00920 (VHH, not shown: small tags and cut ends)
VHH: B5 VHH with D55G, V61A, A75S, K87R, Q121L
As for B6, the IC50 in [12] turned out to be 0.23 nM; in the assay with FLAG-tagged mouse Ang2 [13], 0.15 nM.

B7: VHH 00927 (VHH, not shown: small tags and cut ends)
VHH: B5 VHH with D55G, V61A, A75S, K87R, M109R, Q121L
With B7, the figures for the IC50 (in assay [12]; in the assay with FLAG-tagged mouse Ang2 [13]) were 0.33 nM and 0.19 nM, respectively.

B8: VHH 00930 (VHH, not shown: small tags and cut ends)
VHH: B5 VHH with D55G, V61A, A75S, K87R, D99E, M109R, Q121L
With B8, the IC50 in assay [12] was 0.31 nM; with FLAG-tagged mouse Ang2 [13], 0.17 nM.

B9: VHH 00931 (VHH, not shown: small tags and cut ends)
VHH: B5 VHH with D55G, V61A, A75S, K87R, D99E, M109S, Q121L
B9: the IC50 in assay [12] came out at 0.29 nM; with FLAG-tagged mouse Ang2 [13] it was 0.15 nM.

B10: VHH 00926 (VHH, not shown: small tags and cut ends)
VHH: B5 VHH with D55G, V61A, A75S, K87R, M109Q, Q121L
For B10, the IC50 turned out to be 0.29 nM in assay [12] and 0.2 nM in the assay with FLAG-tagged mouse Ang2 [13].

B11: VHH 00929 (VHH, not shown: small tags and cut ends)
VHH: B5 VHH with D55G, V61A, A75S, K87R, D99E, M109Q, Q121L
In the case of B11, the values for the half-inhibitory concentration (IC50) (in assay [12]; with FLAG-tagged mouse Ang2 [13]) were 0.25 nM and 0.15 nM, respectively.

B12: VHH 24B05 (VHH)
VHH: EVQLVESGGGLVQPGGSLRLSCAASGFTLDYYAIGWFRQAPGKEWEGVSCISSSDGSTYYADSVKGRFTISRDNAKNTVYLQMNSLKPEDTAVYYCATDSIVCGSYYGMDYWGKGTQVTVSS
notes: also called 024B05; not shown: C-terminal c-myc tag and His6 tag
Take B12: the Kd was 0.96 nM in assay [1], 1.7 nM in assay [2] and 0.59 nM in assay [3]. Also, the koff in assay [1] was 0.0025 s⁻¹; in assay [2] it was 0.0029 s⁻¹; in assay [3] it was 0.0024 s⁻¹. The kon in [1] came out at 2.6e+06 M⁻¹ s⁻¹; in assay [2], 1.7e+06 M⁻¹ s⁻¹; in assay [3] it was 4.1e+06 M⁻¹ s⁻¹. For the same molecule, the IC50 amounted to 2.1 nM in assay [4], 1.5 nM in assay [6] and 1.1 nM in [7]. Moreover, in assay [5], the “% inh” value is 98%.

Usually Kd stands for a measure of binding affinity in units of concentration. By koff is commonly meant the first-order rate constant of dissociation. By kon is commonly meant the rate constant with which the complex forms. By IC50 is commonly meant the concentration that gives 50% inhibition.

The values above are taken from patent publication US20230203146A1 (Boehringer Ingelheim, published 2023).
